Assays:
AncSZ = test: phosphorylation enrichment, bacterial display (enrichment ratio); higher = better substrate or ligand; peptides without Tyr show the background
EPHB1 = EPHB1 (UniProt P54762); test: as above
EPHB2 = EPHB2 (UniProt P29323); test: as above
FGFR1 = FGFR1 (UniProt P11362); test: as above
FGFR3 = FGFR3 (UniProt P22607); test: as above
Fer (mouse) = test: as above
Fes = Fes (UniProt P07332); test: as above
Fyn = Fyn (UniProt P06241); test: as above
Hck = Hck (UniProt P08631); test: as above
Jak2 = Jak2 (UniProt O60674); test: as above
MERTK = MERTK (UniProt Q12866); test: as above
Sequence of MERTK (Q12866 whole entry, looked up): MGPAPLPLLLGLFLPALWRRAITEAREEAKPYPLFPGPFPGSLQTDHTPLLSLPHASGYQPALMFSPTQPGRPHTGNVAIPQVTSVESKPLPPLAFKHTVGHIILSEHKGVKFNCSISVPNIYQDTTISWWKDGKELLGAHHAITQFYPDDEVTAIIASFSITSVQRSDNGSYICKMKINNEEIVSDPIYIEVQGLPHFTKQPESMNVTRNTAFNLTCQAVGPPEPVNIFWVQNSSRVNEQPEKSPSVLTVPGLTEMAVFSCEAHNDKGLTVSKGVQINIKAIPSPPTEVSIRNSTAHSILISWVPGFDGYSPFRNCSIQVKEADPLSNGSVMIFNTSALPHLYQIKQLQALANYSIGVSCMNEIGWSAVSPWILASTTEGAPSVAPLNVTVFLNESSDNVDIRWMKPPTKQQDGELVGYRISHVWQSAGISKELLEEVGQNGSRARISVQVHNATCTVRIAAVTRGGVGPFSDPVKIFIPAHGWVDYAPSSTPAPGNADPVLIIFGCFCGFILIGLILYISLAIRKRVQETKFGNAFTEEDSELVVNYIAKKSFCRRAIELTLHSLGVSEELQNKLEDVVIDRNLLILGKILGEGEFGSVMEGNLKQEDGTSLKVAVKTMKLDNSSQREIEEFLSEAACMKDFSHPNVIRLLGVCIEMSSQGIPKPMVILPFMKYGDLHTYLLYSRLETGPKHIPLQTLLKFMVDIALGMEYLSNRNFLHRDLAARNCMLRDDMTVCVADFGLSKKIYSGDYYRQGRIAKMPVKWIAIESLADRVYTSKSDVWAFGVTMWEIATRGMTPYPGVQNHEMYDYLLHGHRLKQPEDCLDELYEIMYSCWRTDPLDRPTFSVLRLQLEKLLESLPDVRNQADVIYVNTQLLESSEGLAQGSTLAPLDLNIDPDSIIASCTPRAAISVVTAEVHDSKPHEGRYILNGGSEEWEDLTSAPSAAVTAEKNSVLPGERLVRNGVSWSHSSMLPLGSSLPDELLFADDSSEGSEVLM

c-Abl (mouse) = test: as above
c-Src = test: as above
Grb2 SH2 = Grb2 SH2 (UniProt P62993); test: SH2 binding enrichment of the phosphorylated peptide, bacterial display (enrichment ratio); higher = better substrate or ligand; peptides without Tyr show the background
SHP2-C SH2 = test: as above
c-Src SH2 = test: as above
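Wherever SH2 binding enrichment of the phosphorylated peptide, bacterial display is given: peptide library displayed on the E. coli surface as eCPX fusions, selected cells deep-sequenced, score is each peptide's frequency after selection divided by its frequency in the input.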
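Wherever phosphorylation enrichment, bacterial display is given: 11-residue human phosphosite peptides and single-mutation variants displayed on the E. coli surface, counted by deep sequencing, each peptide's frequency after selection divided by its frequency in the unselected input library; frequency after pTyr selection over input frequency; kinase dosed for 20-30% of maximal phosphorylation in three min.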

Sequence of Fyn (P06241 whole entry, looked up): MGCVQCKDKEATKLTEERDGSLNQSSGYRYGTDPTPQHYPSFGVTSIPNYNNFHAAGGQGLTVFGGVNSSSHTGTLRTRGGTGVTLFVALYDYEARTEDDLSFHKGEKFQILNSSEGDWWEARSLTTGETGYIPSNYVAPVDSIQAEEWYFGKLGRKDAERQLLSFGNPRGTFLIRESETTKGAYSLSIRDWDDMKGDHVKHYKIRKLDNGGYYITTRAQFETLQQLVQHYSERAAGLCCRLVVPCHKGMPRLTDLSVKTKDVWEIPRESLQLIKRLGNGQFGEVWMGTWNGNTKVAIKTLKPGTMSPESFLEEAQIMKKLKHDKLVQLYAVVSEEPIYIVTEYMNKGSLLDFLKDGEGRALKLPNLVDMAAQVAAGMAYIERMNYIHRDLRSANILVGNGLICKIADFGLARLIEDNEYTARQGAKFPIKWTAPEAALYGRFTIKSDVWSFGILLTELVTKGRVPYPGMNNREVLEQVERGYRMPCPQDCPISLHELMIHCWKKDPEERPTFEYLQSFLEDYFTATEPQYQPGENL
Sequence of FGFR1 (P11362 whole entry, looked up): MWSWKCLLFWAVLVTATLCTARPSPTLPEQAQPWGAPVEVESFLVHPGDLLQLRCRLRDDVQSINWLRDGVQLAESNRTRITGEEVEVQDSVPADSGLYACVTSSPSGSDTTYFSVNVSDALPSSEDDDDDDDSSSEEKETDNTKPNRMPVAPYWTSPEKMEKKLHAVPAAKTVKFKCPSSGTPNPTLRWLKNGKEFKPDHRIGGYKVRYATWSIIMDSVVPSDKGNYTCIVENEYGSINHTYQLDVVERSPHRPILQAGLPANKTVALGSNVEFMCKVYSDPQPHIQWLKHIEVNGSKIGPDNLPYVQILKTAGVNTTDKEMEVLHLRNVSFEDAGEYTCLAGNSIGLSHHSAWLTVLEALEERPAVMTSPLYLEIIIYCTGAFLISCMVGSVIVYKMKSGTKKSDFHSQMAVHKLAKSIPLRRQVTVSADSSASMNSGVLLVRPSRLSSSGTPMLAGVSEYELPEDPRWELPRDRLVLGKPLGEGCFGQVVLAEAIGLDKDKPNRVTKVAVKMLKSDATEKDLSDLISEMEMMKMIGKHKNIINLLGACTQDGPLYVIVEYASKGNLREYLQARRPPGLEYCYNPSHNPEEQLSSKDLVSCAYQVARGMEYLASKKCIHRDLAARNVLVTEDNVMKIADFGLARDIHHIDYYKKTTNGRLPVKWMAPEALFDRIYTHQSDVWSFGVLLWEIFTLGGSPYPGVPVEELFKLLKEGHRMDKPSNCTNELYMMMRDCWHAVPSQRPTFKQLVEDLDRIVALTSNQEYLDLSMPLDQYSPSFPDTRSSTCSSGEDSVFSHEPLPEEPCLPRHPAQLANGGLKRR
Sequence of FGFR3 (P22607 whole entry, looked up): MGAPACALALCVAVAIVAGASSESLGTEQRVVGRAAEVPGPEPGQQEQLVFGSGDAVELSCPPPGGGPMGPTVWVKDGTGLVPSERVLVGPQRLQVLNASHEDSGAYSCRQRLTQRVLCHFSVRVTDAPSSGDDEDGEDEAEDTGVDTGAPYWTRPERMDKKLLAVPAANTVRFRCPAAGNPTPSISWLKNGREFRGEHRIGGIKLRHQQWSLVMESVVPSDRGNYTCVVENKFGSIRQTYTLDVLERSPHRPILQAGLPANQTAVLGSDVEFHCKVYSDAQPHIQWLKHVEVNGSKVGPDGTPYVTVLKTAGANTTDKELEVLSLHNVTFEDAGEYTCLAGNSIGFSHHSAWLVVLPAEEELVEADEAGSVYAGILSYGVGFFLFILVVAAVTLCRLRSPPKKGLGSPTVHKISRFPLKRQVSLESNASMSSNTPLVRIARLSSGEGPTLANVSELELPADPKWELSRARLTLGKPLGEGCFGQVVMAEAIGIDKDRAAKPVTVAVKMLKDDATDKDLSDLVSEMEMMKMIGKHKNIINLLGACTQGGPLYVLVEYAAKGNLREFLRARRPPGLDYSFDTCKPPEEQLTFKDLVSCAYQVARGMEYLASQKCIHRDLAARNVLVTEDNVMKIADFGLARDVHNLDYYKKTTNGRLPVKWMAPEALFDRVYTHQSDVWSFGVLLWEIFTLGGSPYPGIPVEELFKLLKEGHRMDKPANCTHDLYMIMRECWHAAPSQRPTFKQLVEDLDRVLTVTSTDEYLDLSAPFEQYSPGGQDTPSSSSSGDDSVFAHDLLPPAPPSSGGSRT
Sequence of Fes (P07332 whole entry, looked up): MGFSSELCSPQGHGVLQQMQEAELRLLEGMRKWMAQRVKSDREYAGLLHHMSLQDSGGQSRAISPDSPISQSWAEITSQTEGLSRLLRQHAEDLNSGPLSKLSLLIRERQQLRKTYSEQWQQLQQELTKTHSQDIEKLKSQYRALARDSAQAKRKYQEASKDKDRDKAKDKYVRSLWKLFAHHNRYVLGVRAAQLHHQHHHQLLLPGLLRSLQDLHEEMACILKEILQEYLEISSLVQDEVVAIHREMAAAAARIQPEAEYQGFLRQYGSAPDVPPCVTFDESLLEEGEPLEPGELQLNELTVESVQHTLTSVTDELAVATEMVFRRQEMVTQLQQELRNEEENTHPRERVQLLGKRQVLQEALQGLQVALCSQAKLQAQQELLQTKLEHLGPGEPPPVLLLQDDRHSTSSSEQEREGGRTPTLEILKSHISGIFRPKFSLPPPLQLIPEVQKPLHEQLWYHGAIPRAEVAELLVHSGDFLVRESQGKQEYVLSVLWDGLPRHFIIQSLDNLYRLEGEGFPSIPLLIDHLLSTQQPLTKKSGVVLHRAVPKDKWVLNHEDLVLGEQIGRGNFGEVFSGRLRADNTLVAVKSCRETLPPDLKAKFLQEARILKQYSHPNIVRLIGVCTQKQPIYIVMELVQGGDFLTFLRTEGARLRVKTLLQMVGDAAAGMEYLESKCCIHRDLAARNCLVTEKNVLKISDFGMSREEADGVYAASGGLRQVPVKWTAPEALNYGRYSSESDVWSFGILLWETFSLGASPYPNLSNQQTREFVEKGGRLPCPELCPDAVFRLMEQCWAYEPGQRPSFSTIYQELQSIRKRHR
Sequence of EPHB1 (P54762 whole entry, looked up): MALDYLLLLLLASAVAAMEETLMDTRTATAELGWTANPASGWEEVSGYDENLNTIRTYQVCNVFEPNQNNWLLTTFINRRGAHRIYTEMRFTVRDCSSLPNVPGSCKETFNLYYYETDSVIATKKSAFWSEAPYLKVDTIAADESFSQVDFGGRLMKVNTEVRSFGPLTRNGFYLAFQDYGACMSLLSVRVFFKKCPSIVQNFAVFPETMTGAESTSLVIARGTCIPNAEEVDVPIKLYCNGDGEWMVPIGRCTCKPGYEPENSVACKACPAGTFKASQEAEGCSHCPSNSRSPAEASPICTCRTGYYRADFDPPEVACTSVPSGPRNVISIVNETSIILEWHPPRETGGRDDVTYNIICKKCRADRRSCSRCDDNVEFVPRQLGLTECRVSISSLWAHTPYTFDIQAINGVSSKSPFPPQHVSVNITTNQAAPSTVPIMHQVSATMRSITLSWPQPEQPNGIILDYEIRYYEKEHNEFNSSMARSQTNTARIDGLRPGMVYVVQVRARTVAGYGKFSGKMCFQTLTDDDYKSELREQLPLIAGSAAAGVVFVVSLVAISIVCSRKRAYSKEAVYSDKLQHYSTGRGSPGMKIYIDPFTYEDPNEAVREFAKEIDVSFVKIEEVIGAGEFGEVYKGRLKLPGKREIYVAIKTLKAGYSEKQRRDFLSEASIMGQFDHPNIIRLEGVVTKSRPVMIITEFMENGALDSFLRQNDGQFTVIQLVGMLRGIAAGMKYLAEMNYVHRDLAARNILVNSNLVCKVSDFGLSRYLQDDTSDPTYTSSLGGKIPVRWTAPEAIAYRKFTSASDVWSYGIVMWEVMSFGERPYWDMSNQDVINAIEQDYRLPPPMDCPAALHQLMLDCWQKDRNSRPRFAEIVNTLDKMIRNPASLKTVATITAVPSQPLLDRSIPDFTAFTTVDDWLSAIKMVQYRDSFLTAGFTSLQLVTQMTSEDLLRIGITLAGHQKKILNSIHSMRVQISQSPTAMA

Sequence	phosphorylation enrichment (AncSZ)	phosphorylation enrichment (EPHB1)	phosphorylation enrichment (EPHB2)	phosphorylation enrichment (FGFR1)	phosphorylation enrichment (FGFR3)	phosphorylation enrichment (Fer (mouse))	phosphorylation enrichment (Fes)	phosphorylation enrichment (Fyn)	phosphorylation enrichment (Hck)	phosphorylation enrichment (Jak2)	phosphorylation enrichment (MERTK)	phosphorylation enrichment (c-Abl (mouse))	phosphorylation enrichment (c-Src)	SH2 binding enrichment (Grb2 SH2)	SH2 binding enrichment (SHP2-C SH2)	SH2 binding enrichment (c-Src SH2)
DLDPNYVLSSR [CKM_Y125]	1.17	0.523	0.636	0.465	0.714	0.394	1.01	0.416	0.473	0.759	0.464	0.528	0.534	0.765	0.75	0.528
FRDMDYRSFPH [RBM10_Y41_R46H_YF]	0.55	0.442	0.388	0.577	0.449	0.407	0.698	0.419	0.314	0.667	0.385	0.549	0.436	0.911	0.787	0.565
PKSWNYELPAT [PROM1_Y34_A31S]	2.37	1.67	1.67	1.39	1.65	1.06	1.45	1.13	1.26	0.658	1.07	0.605	0.448	0.618	1.02	0.772
ALRASYTPSPA [ESS2_Y418]	0.448	0.352	0.34	0.366	0.389	0.367	0.471	0.332	0.333	0.294	0.326	0.329	0.369	0.893	0.624	0.536
KRGIDYILWHM [FRMD1_Y225_R228W]	1.04	0.765	0.824	1.33	0.984	0.591	1.15	0.5	0.536	1.06	0.548	0.788	0.414	1.56	1.5	1.08
GGEEFYVHFVG [KAT8_Y90_R86G_YF]	1.34	0.747	0.605	0.648	0.96	0.592	1.39	0.58	0.612	1.24	0.433	0.967	0.501	0.626	0.538	0.308
KTGNIYRTEYG [MRPL3_Y265_M261T]	0.555	0.451	0.421	0.464	0.592	0.629	0.633	0.488	0.496	0.414	0.425	0.441	0.424	0.829	0.91	0.463
NLVSEYQQYQD [TUBB3_Y422_D417N]	1.37	0.582	0.693	0.531	0.726	0.508	1.05	0.592	0.606	0.968	0.44	0.679	0.541	0.831	0.698	0.673
AGGTRYRYVSQ [UCN3_Y95_R91G]	0.529	0.574	0.525	0.397	0.381	0.377	0.616	0.491	0.435	0.417	0.519	0.474	0.507	0.777	0.438	0.438
TEALFYTDDPA [ADPRS_Y75_T79P_YF]	1.62	1.05	0.894	0.734	1.3	0.863	1.82	0.645	0.76	1.65	0.699	1.25	0.797	0.636	0.397	0.626
ISIFYYAKGQP [MPZ_Y82_H81Y]	1.38	0.532	0.61	0.563	0.674	0.496	1.72	0.52	0.429	1.36	0.504	1.19	0.649	0.78	0.656	0.409
QPGDIYHQTWA [GBA_Y244]	0.989	0.825	0.88	3.42	2.69	1.3	0.963	3.11	3.66	0.938	2.84	2.9	3.42	0.626	0.352	0.439
LARDIYKNDFF [ROS1_Y2110_YF]	2.31	0.962	0.933	0.68	0.592	1.14	2.15	1.47	0.599	2.38	1.57	1.31	2.29	1.41	0.748	0.44
KVGPGSLGSGG [RET_Y826_Y826S]	0.4	0.29	0.353	0.308	0.366	0.293	0.489	0.352	0.323	0.466	0.3	0.482	0.374	0.778	0.526	0.447
RTLTHYKSAVK [ASNS_Y555]	0.532	0.678	0.411	0.35	0.545	0.312	0.813	0.35	0.5	0.801	0.702	0.563	0.588	0.934	0.83	0.545
GGMTEYNLVVV [KRAS_Y4_K5N]	1.21	0.642	0.552	1.08	1.05	1.17	1.1	0.486	0.609	0.981	0.398	0.758	0.478	0.669	0.488	0.352

Sequence	phosphorylation enrichment (AncSZ)	phosphorylation enrichment (EPHB1)	phosphorylation enrichment (EPHB2)	phosphorylation enrichment (FGFR1)	phosphorylation enrichment (FGFR3)	phosphorylation enrichment (Fer (mouse))	phosphorylation enrichment (Fes)	phosphorylation enrichment (Fyn)	phosphorylation enrichment (Hck)	phosphorylation enrichment (Jak2)	phosphorylation enrichment (MERTK)	phosphorylation enrichment (c-Abl (mouse))	phosphorylation enrichment (c-Src)	SH2 binding enrichment (Grb2 SH2)	SH2 binding enrichment (SHP2-C SH2)	SH2 binding enrichment (c-Src SH2)
TLARLYHPDST [LRIG1_Y1029]	0.508	0.422	0.549	0.344	0.429	0.364	0.743	0.575	0.416	0.609	0.355	0.672	0.302	0.646	0.681	0.372
NGQAVYAACQT [XDH_Y1092]	0.545	2.24	2.2	0.506	0.371	2.4	0.706	4.76	4.26	0.378	1.64	3.5	3.51	0.685	0.618	0.427
RQQEVYLLYKQ [RARRES1_Y159_D158V]	1.5	0.757	0.855	0.672	1.11	0.611	1.98	0.919	0.877	1.34	0.842	1.13	1.41	0.918	0.765	0.61
SAPPSHEETVA [LITAF_Y23_Y23H]	0.453	0.435	0.393	0.374	0.84	0.524	0.597	0.481	0.342	0.817	0.338	0.489	0.404	0.62	0.549	0.4
AKQVGCENAGT [PC_Y304_Y304C]	0.749	0.407	0.455	0.391	0.484	0.42	0.83	0.487	0.408	0.706	0.442	0.638	0.428	0.803	0.694	0.455
DNPAKYFILES [DPP10_Y512]	0.833	0.544	0.567	0.508	0.715	0.419	1.04	0.485	0.51	0.955	0.542	0.558	0.442	0.832	0.749	0.834
DLLNSYTENEG [HSPA4L_Y600_I601T]	1.17	0.482	0.618	0.578	0.759	0.446	1.24	0.614	0.603	1.16	0.492	0.623	0.616	0.7	0.882	0.457
VRFMANTDETF [F8_Y450_Y450N]	0.928	0.701	0.568	0.439	0.653	0.436	1.12	0.408	0.462	0.849	0.408	0.604	0.44	0.645	0.722	0.452
IRTIDYRYTVW [IDS_Y497]	1.15	0.666	0.566	0.554	0.732	0.57	1.16	0.493	0.535	0.929	0.422	0.695	0.398	1.04	1.31	0.985
KSAAIYNPVIY [RHO_Y301]	0.758	0.805	0.744	1.41	1.25	15.4	0.72	7.54	8.17	0.573	3.42	0.727	6.12	1.1	0.581	1.02
ANAYIYDVQLP [L1CAM_Y420_V421D]	1.25	3.15	2.78	0.65	0.89	1.72	1.05	10.3	6.89	0.905	9.63	0.954	7.22	0.854	1.54	0.773
VNKIYHPDFIV [LIG3_Y768_Y768H]	0.62	0.355	0.417	0.453	0.589	0.388	0.715	0.446	0.481	0.796	0.483	0.562	0.484	0.747	0.72	0.529
GEHSIYCTVNN [CD55_Y266]	1.55	6.56	5.39	0.955	1.07	5.03	1.73	5.28	5.61	1.22	2.08	1.98	4.66	0.598	0.639	0.48
PLDGGYFTLQI [TP53_Y327_E326G]	1.79	1.2	0.776	1.67	1.59	0.766	1.75	0.726	0.679	5.04	0.5	1.09	1.37	0.71	0.663	0.518
QYPDVYAREEV [CRX_Y67]	3.78	1.57	1.82	0.959	1.66	1.93	4.98	1.66	2.18	5.06	1.8	3.34	3.8	1.05	0.812	0.49

Source: the supplement of paper PMC10065799, “High-throughput profiling of sequence recognition by tyrosine kinases and SH2 domains using bacterial peptide display” (eLife, 2023)
